Results: patent publication US20220259268A1 (NATIONAL UNIVERSITY CORPORATION TOKAI NATIONAL HIGHER …, published 2022)

Target: the molecule itself
Assay: dynamic light scattering of liposomes carrying Nhead-SNAP on the surface layer

B1: Nhead-SNAP fusion peptide (AtaA59-325-GCN4pII-SNAP-His) (other)
chain: not shown
notes: also called E. coli recombinant Nhead-SNAP
Q: Does B1 bind?
A: Result: no binding
